Results published in the nanobody polyreactivity screen of Harvey et al. (2022).

Assay: yeast display, Sf9 membrane polyspecificity reagent, FACS + sequencing; frameworks hold sequencing errors
In short: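 A nanobody's polyreactivity label depends on the gate it was sorted from. Yeast display cells were stained with 10% biotinylated, detergent-solubilized Sf9 membrane reagent for 1 hour at 4 °C, enriched on streptavidin microbeads and sorted by FACS. The low and high (top ~1%) gates were set on anti-HA fluorescence for expression and streptavidin fluorescence for reagent binding.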

| Sequence | polyreactivity (PSR sort gate) |
| --- | --- |
| QVQLVESGGGLVQAGGSLRISCAASGNTVNDYTMGWYRQEPGKERELVAAIRSGGRTYYADSVKGRFTISRDNAKNTVYLQMNSLKPEDTAVYYCAALAVTYRYDYWGQGTQVTVSS | high polyreactivity |
| QVQLVDSGGGLVQAGGSLRLSCAASGYTFDRYAMGWYRQAPGKERELVAAISVRGGRTHYADSVKGRFTISRDNAKNTVYLQMNSLKPEDTAVYYCNKDSKGGYSVPHDYWGQGTQVTVSS | low polyreactivity |
| QVQLVESGGGLVQSGGSLRLSCAASGSIFSAYAMGWYRQAPGKEREFVAAITRRGGNTYYADSVKGRFTISRDNAQNTVYLQMNSLKPEDSAVYYCAADAGGGPFDYWGQGTQVSVSS | low polyreactivity |
| QEQLQESGGGQVQAGGSLLLSCAASGNIIRYYYMGWYRQAPGKERELVAAINVGAITYYADSVKGRFSISRDNAKNTVYLPMNSLTPEDTAVYYCAVDQYSEAYYDYWGQGTQATVSS | high polyreactivity |
| QVQLVESGGGLVQAGGSLRLSCAASGIIFASNAMGWYRQAPGKQRELVATINWTDSSTYYADSVKGRFTISRDNAKNTVYLQMNSLKPEDTAVYYCAVVDVEEHVGHWGQGTQVTVSS | low polyreactivity |
| QVQLVESGGGLLQAGGSLRLSFAASGSIVGPYGRGWYRQAPGKERELVAAISTVGGSTYYADSVKGRFTISRDNAKNTVYLQMNSLTPEDTAGYYCAKVPRYIELSRQATHSYDYWGHGTQVTVSS | low polyreactivity |
| QVQLEESGGGLFQAGGSLRLSCAASGLNFGQNVMGWYRQAPGKERELLAAIRESGGRTYYADSVKGRFTISRDNAKNTFYIQMNSLNPEDTAVYYCRAYWRYSRYDYWGQGTQVTGSS | high polyreactivity |
| QVQLVESGGGLVQAGGSLRLSCAASGRIFYINAMGWYIQAPGKERELVASITGSGGRTYYADSVKGRFTISRDNAKNTVYLQMNSLKPEDTAVYYCNADLYVGYLYYLYDYWGQGTQVTVSS | low polyreactivity |
| QVQLVESGGGLVQAGGSLRLSCAASGSIFDLNAMGWYRQAPGKERELVAAISSVGGTYYADSVKGRFTISRDNAKNTGYLQMNSLKPEDTAVYYCNRVTRWTYNYWGQGTQVTVSS | high polyreactivity |
| QVQLVESGGGLVQAGGSLRLICAASGRIFVPYAMGWYRQAPGKERELVAAITYDGGSTYYADSVKGRFTISRDNAKNTVYLQMNSLKPEDTAVYYCAADYGYSQYILGQFRLEELDYWGQGTQVTVSS | low polyreactivity |
| QDQLVESGGGLFQEGGSLRLSCSASGSTFWVNTIRWYRQAPGKATELVADISSGGNTYYAHSVKGRFTISRDNAKNTVYLQMNSLKTEDTAVYYCNADPFTRWVIRDDYGGQGTQVTVSS | low polyreactivity |
| QVQLVESGGGLVQAGGSLRLSCAASGTTFVWYAMGWYRQAPGKERELVAAISLSGGSTYYADSVKGRFTISRDNAKKTVYLQMNSLKPEDTAVYYCAAETYAYLFHTYDYWGQGSQVTVSS | low polyreactivity |
| QVQLVESGGGLVQAGGSLRLSCAASGRTFVYNAMGWYRQAPGKERELVAAIDGGGDRTYYADSVKGRFTISRDNAKNTVYLQMTSLNPEDTAVYYCARDPGDTYYYSYPEGDYWGQGTQVTVSS | low polyreactivity |
| QVQLVESGGGLVQAGGSLRLSCAASGSIFYRNAMGWYRQAPGKERELVAAISWRGGSTYYADSVKGRFTISRDNAKNTVFLQMNSLKPEDTAVYYCAAAQRVNHVWYDYWGQGTQVTVSS | low polyreactivity |
| QVQLVESGGGLVQAGGSLRLSCAASGRTFLTNAMGWYRQAAGKERELVAAITSSGGNTYYADSVKGRFTISRDNAKNTVYLQMNSLKPEDTAVYYCAAPGYVWYGGRWVYRYYYWGQGTQVTVSS | high polyreactivity |
| QVQLVESAGGLVQAGASLRLSCAASGIIFTRYAMGWYRQPPGKESELVAAITRSSGSTYYADSVKGRFTISRDNAKNTVYLQMNSLKPEDSAVYYCAADWVSRYQARPYFSAFNYWGQGTQVTVSS | high polyreactivity |

| Sequence | polyreactivity (PSR sort gate) |
| --- | --- |
| QVQLVESGGGLVQAGGSLRLSCAASGSTFLYYAMGWYRQAPGKERELVAVISWSGVSTYYADSVKGRFTISRDNAKNTVYLQMNSLTPEDTAVYYCNTGNHYIRTYGYWGQGTQVTVSS | low polyreactivity |
| QDQLVESGGGLVQAGGSLRLSCAASGIIFGYYAMGWDRQAPGKERELVAAISSGGTTSYADSVKGPFTISRDNEKNTVSLQMNSLKPEYTAVYYCAARDGYDGFYYWGQGTQVTVSS | low polyreactivity |
| QVQLVESWGGLVQAGGSLRLSCAASGSTFVINAMGWYSQAPGKERELVAAITWGGGRTYYADSVKGRFTISRDNAKNTVYLQMNSLKPEDTAVYYCAAVGSGWKGDYWGQGTQVTVSS | low polyreactivity |
| QVQLVESGGGLVQAGGSLRLICAASGSTFSSNAMAWFRQAPGKERELVAAIDRGGSTNYADSVKGRFTISRDNAKNTVYFQMNCLKAEDTAVYYCKAERVTYDTGRAVLPGGYWGQGTQVTVSS | low polyreactivity |
| QVQLVESGGGLVQAGGSLRLSCDASGITFQYYAMGWYRQAPGKERELVAAINWRGGTTYYADSVKGRITISRDNAKNTVYLQMNSLIPEDNEVYYCAADYYYQAGFYYWGQGTQVTVSS | low polyreactivity |
| QVQLVESGGGLVQAGGSLRLSCAASGRIFNYNTMGWYRQAPGKERELVAAINFSGDRTYYADSVKGRFTISRDISKNTVYLQMNSLKPEDTAVYYCAAQGYWYGYQPGNYWGQGTQVTVSS | high polyreactivity |
| QVQLVESGGGLVQAGGSLRLSCAASGGTFVSNAMGWYRHAPGKERELVAAITTGGTTYADSVKGRFTISRDNAKNSVYLQMKSLKPEDSAVYYCAADIYLLILGRSILQFDYWGQGTQVTVSS | low polyreactivity |
| QVQLVESGGGLVPAGGSLRLSCAASGNNFRANTMGWYRQARGKERELVASIRRSGGSSYYADSVKGRFTISRDNAKNTVYLQMNSLKPEDTAAYYCAAESRPPYTDNYYWGQGTQVTVSS | high polyreactivity |
| QVQLVESGGGLVQAGGSLRLSCAASGSIFSYNAMGWSRQAPGNERELVARISYSGGSTYYADSVKGRFTISRDNAKNTVYLQMNSLKPEDTAVYYCAKRAYGWPYDYWGQGTQVTVSS | high polyreactivity |
| QVQLVESGGGLVQAGGSLRLICAASGITFVTYAMGWYRQAPGKERELVAAISRSGGRTYYADSVKGRFTISRDNAKNTVYLQMNSLKPEDTSVYYCAAERKNKYDYWGQGTQVTVSS | high polyreactivity |
| QVQLVESCGGLVQAGGSLRLSCAASGSTFRYYPMGWYRPATGKETELVASISIGGGSTYYADSVKGRFTISRDHAKNTVYLQMNSLKPEDTAGYYCAAERTIRAARPFFRTFDYWGQGTQVTVSS | low polyreactivity |
| QVQLVESGGGLVQAGGSLRLSCAASGSTFPYYAMGWYRQAPGKERELVAAISQNGGSTYYADSVKGRFTISRDNAKNTVYLQMNSLKPEDTAVYYCNADGVGGEYRLSGYDYWGQGTQVTVSS | low polyreactivity |
| QVQLVESGGGLVQAGGSLRLSCAASGIIFYWYAMGWYRQAPGKERELVAGIDSDGSTNYADSVKGRFTISRDNAKNTVYLQMNSLKPEDTAVYYCAAVQGYRFYESYYWGQGTQVTVSS | low polyreactivity |
| QVQLVESGGGLVQAGGSLRLSCASSGSTFYTNAMGWYRQAPGKERELVAGISSGGSTYYADSVKARFTISRDNAKNTVYLQINSLKPEDTAVYYCAAVERTRYWEFYYWGQGTQVIVSS | high polyreactivity |
| QVQLVESGGGLVQAGGSLRLSCAASGINFNYYVMGWYRQAPGKERELVAAISRSGGRTRYADSVKGRFTISRDNAKNTVYLQMNSLKPEDTAVYYCAAVGSVNYDADFDYWGQGTQVTVSS | high polyreactivity |
| HVQLVESGGGLVQAGGCLRLSCAASGRICIFYAMGWYRQAPGKERELVAAISSGPSTTYADSVKGRFTISRDNAKNTVYLQMNSLNPEDTAVYSCARRDGTTQALFGYDYWGQGTQVTVSS | low polyreactivity |
